Consider 14 molecules from article PMC6640694 (Antibodies, 2019).

Assay [1] concerns the target T1, recombinant His-tagged human OX40 extracellular domain (Homo sapiens, UniProt P43489).
The target in assay [2] is T1, recombinant His-tagged human OX40 …. Description: BLI; Octet Red96; 5 μg/mL antibody loaded onto Protein A biosensor, dipped into His-tagged OX40 extracellular domain at 200, 100 and 50 nM or 1600, 800 and 400 nM; 1:1 binding model, global fit. Conditions: one partner purified. For orientation: BLI is a label-free optical method that tracks binding on a fibre tip over time.

Assay [3] concerns the target T2, human OX40 expressed on Flp-In CHO cells (Homo sapiens, UniProt P43489). Description: cell-based or functional assay.
Assay [4] has as its target T2, human OX40 expressed on Flp-In CHO cells. Nature of the assay: flow cytometry on cells; one million CHO cells (1:1 mix of OX40-expressing and PD-1-expressing negative control cells) stained with 1 μg mAb in 100 μL MACS Buffer (DPBS, 0.5% BSA, 2 mM EDTA), 30 min, 4 °C; detected with anti-human IgG Fc-PE. As to conditions: partners not purified. On the technique in general: A flow cytometer gives signals particle by particle.

Changes are numbered by the printed parent chain. Read-outs that look alike come from different tables or passages of the source.

T1 sequence (P43489 29-214): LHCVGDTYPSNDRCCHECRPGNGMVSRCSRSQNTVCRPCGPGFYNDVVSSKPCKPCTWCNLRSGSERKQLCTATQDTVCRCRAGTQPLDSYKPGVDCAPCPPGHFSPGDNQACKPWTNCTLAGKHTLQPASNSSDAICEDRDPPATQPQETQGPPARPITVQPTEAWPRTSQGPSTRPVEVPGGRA
T2 sequence (P43489 29-277): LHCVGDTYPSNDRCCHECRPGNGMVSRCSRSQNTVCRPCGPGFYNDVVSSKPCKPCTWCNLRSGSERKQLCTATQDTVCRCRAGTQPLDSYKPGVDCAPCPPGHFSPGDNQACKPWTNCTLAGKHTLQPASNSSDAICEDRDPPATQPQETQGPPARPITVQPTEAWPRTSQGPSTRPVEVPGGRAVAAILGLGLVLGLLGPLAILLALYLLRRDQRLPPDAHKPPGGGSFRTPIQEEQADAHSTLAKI

B1: tOX40.39 (S-CL-LN-1) (antibody, V domains shown)
VH: EVQLVESGGGLVQPGGSLRLSCAASGFTFSNYAMTWVRQAPGKGLEWVSTISGSGGSTYYADSVKGRFTISRDNSKNTLYLQMNSLRAEDTAVYYCAKADCGDNCYSFFDYWGQGTLVTVSS
VL: DIQMTQSPSSLSASVGDRVTITCRASQGISNWLAWYQQKPEKAPKSLIYAASSLQSGVPSRFSGSGSGTDFTLTISSLQPEDFATYYCQQYNSYPPTFGRGTKVEIK
Broadly, the Kd is the equilibrium constant for the complex coming apart. As for B1, in assay [1], the Kd came out at 90 nM.

B2: tOX40.37 (S-S-Sp-10/S-CL-Sp-1) (antibody, V domains shown)
VH: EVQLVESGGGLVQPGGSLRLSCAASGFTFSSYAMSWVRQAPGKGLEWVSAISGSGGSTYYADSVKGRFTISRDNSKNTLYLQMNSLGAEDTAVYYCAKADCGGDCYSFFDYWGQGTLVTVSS
VL: B1 VL with N31S, R100Q
In the case of B2, the Kd in assay [1] turned out to be 12.5 nM.

B3: tOX40.22 (S-CL-LN-5) (antibody, V domains shown)
VH: QVQLVESGGGVVQPGRSLRLSCAASGFTFSNYGMHWVRQAPGKGLEWVAVIWLDGSNKYYADSVKGRFTISRDNSKNTLYLQMNSLRAEDTAVYYCARAAAGSLYYGMDVWGQGTTVTVSS
VL: B1 VL with S30N, N31T, N92Y, P96W, R100Q, K107R
Take B3: the Kd in assay [1] is 7.3 nM.

B4: tOX40.41 (S-CL-LN-9) (antibody, V domains shown)
VH: QVQLQESGPGLVKPSETLSLTCTVSGGSISSYYWSWIRQPPGKGLEWIGYIYYSGSTNYNPSLKSRVTISVDTSKNQFSLKLSSVTAADTAVYYCARYYDILTVWDWFDPWGQGTLVTVSS
VL: B1 VL with N31S, E41G, P96I, R100Q, K103R, V104L
Turning to B4, the Kd in assay [1] was 58.4 nM.

B5: tOX40.40 (S-CL-LN-7) (antibody, V domains shown)
VH: QVQLVESGGDVVQPGMSLRLSCAASGFTFSDYGMHWVRQAPGKGLEWVAVIWYDGSNKYYEDSVKGRFTISRDNSKNTLYLQMNSLRAEDTAVYYCTRAGFGESGYGMDVWGQGTTVTVSS
VL: DIQMTQSPSSLSASVGDRVTITCRASQGISNYLAWYQQKPGKVPKLLIYAASTLQSGVPSRFSGSGSGTDFTLTISSLQPEDVATYYCQKYHSAPWTFGQGTKVEIK
With B5, the Kd in assay [1] worked out at 151 nM.

B6: tOX40.23 (S-CL-LN-8) (antibody, V domains shown)
VH: B5 VH with D10G, M16R, D31N, N57K, E61A, T97A
VL: B5 VL with I21F, S30N, H92Y, I106V
As to B6, the Kd in assay [1] was determined as 5.2 nM.

B7: tOX40.24 (antibody, V domains shown)
VH: QVQLVESGGGVVQPGRSLRLSCAASGFTFRSYGMHWVRQAPGKGLEWLAIIWYDGSNKYYADSVKGRLTISRDNSKNTLYLQMNSLRAEDTAVYYCARDTQVAEAGFPHHHYYGMDVWGQGTTVTVSS
VL: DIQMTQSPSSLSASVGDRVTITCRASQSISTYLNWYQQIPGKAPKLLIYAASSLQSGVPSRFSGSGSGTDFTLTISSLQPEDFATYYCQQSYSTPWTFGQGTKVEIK
notes: human IgHG1 constant domains; kappa; source: ExpiCHO, transiently transfected; quantified in the supernatants
On to B7, for which the Kd in assay [2] worked out at 22.9 nM. Besides, the “Promega In Vitro Assay EC50 (Agonist): luminescence of OX40-expressing Jurkat cells with FcγRIIB/CHO-K1 cells” value in assay [3] was found to be 0.024 µg/mL.

B8: tOX40.4 (S-S-Sp-1/S-CL-Sp-2) (antibody, V domains shown)
VH: QVQLVQSGAEVKKPGASVKVSCKVSGYTLTELSMHWVRQAPGKGLEWMGGFDPKDGETIYAQKFQGRVTMTEDTSTDTAYMELSSLRSEDTAVYYCSTGYCSTTSCGGFDPWGQGTLVTVSS
VL: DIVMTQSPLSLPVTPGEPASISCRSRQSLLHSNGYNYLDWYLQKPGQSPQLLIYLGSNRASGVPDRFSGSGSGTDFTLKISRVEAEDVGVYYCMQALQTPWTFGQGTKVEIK
Take B8: the Kd in assay [1] came out at 9 nM.

B9: tOX40.19 (S-CL-LN-4) (antibody, V domains shown)
VH: QVQLVESGGGVVQPGRSLRLSCAASGFTFSTYGMHWVRQAPGKGLEWVAVIWYDGSNKYYADSVKGRFTISRDNSKNTLYLQMNSLRAEDTAVYYCARTHYDILTGPNWFDPWGQGTLVTVSS
VL: DIQMTQSPSSLSASVGDRVTITCRASQDIRNDLGWYQQKPGKAPKRLIYAASSLQSGVPSRFSGSGSGTEFTLTISSLQPEDFATYYCLQHNSYPFTFGPGTKVDIK
B9: the Kd in assay [1] was found to be 7.7 nM.

B10: tOX40.35 (S-S-Sp-3) (antibody, V domains shown)
VH: QVQLVQSGAEVKKPGASVKVSCKASGYTFTSYGITWVRQAPGQGLEWVGWISAYNGNTNYAQKLQGRVTMTTDTSTSTAYMELRSLRSDDTAVYYCARDFAGGSYYFDYWGQGTLVTVSS
VL: not shown
Take B10: the Kd in assay [1] turned out to be 2.7 nM.

B11: tOX40.21 (S-CL-LN-2) (antibody, V domains shown)
VH: QVQLVESGGGVVQPGRSLRLSCAASGFTFSNYGMHWVRQAPGKGLEWVAVIWYDGSNKYYADSVKGRFTISRDNSKNTLYLQMNSLRAEDTAVYYCARNGDSYFDYWGQGTLVTVSS
VL: not shown
In the case of B11, the Kd in assay [1] amounted to 7 nM.

B12: tOX40.15 (S-S-Sp-6) (antibody, V domains shown)
VH: QVQLVESGGGVVQPGRSLRLSCAASGFTFSSYGMHWVRQAPGKGLEWVAIIWYDGSNKYYADSVKGRFTISRDNSKNTLYLQMNSLRAEDTAVYFCAREGDYYGSGSYYPLDYYYYGMDVWGQGTTVTVSS
VL: DIQLTQSPSFLSASVGDRVTITCRASQGISSYLAWYQQKPGKAPKLLIYAASTLQSGVPSRFSGSGSGTEFTLTISSLQPEDFATYYCQQLNSFPRTFGQGTKVEIK
As to B12, the Kd in assay [1] worked out at 6 nM.

B13: tOX40.63 (antibody, V domains shown)
VH: QVQLVQSGAEVKKPGASVKVSCKVSGYTLTELSMHWVRQAPGKGLEWMGGFDPEDGETIYAQKFQGRVTMTEDTSTDTAYMELSSLRSEDTAVYYCAANWGSDYYYGMDVWGQGTTVTVSS
VL: B12 VL with D1A, F10S, Y32A, A50D, T53S, Q55E, E70D, L91F, S93N, F94Y
notes: as for B7
On to B13, for which, in assay [4], the binding result was “no binding (tested: 1 μg of anti-OX40 mAb in 100 μL)”.

B14: tOX40.31 (S-CL-LN-11) (antibody, V domains shown)
VH: QVQLQESGPGLVKPSETLSLTCTVSGDSISFYYWSWIRQPPGKGLEWIGCIYYSGSTNYNPSLKSRVTISVDTSKNQFSLKLNSVTAADTAVYYCARRLWFGVFDYWGQGTLVPVSS
VL: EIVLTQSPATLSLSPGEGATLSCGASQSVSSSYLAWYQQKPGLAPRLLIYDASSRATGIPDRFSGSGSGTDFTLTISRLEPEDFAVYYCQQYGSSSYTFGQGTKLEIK
Take B14: in assay [1], the Kd is 22.4 nM.
